The assay deals with T1, Vph1NT-FLAG (first 406 amino acids of Vph1p with C-terminal FLAG) (S. cerevisiae, UniProt P32563 1-406).
T1 sequence (looked up): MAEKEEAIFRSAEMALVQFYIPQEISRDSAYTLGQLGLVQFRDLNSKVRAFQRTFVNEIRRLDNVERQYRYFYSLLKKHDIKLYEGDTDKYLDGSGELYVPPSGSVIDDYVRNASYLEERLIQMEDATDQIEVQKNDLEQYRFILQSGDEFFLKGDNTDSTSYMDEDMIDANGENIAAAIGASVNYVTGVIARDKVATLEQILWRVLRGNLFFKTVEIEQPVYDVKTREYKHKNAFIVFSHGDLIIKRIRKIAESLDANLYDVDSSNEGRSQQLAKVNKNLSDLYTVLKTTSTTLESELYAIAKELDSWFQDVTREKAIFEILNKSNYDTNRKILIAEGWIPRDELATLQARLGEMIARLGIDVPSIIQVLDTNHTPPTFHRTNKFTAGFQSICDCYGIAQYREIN
The experiment in a line: pull-down.

B1: GST-Rav1(840–1125) (domain or fragment, S. cerevisiae, UniProt P47104 840-1125, looked up)
chain: LTEQLTKTTLPYLTRHQQITLITVIEAVDEVTKNENIVDYNGVRFLLGVKLFLSHKNIQKSILMRDVSWALHSDNKEILLSSIDRHITSWNRAREYRIAYWIKEQDLVKKFEDIAKYEFSKDDKRDPSRCAIFYLALKKKQILLSLWKMAIGHPEQQKMVRFISNDFTVPRWRTAALKNAFVLLSKHRYMDAAVFFLLTDSLKDCVNVLCKQVHDMDLAIGVCRVYEGDNGPVLGELLTAQMLPETIKENDRWKASFIYWKLRKQEVAIKALLTAPIDLENNSSIV
Regarding B1, the binding result is “binds”.

The values are drawn from PMC3907276 (Molecular Biology of the Cell, 2014).
